Experimental data taken from patent US20250230247A1 (DREN BIO, published 2025).
Each block holds one binder with its values, some of them ahead of it.

Tests used:
Trop-2 = biological target: T1, Trop-2 (human, UniProt P09758 27-323); experiment: flow cytometry on A431 cells (MFI)
T1 construct: whole, on cells; also called Trop-2 on A431, HeLa, BxPC-3, SiHa and Capan-2 cells
T1 sequence (looked up): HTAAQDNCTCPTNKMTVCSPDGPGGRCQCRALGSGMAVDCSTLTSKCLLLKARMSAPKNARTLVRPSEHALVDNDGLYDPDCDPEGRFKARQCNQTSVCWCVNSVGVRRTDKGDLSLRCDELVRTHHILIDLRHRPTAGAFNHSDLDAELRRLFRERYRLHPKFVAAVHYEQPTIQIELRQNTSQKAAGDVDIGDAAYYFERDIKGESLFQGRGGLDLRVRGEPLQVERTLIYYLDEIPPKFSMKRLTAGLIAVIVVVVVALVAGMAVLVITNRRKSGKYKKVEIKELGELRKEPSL

human Dectin-1 isoform A = biological target: T2, human Dectin-1 isoform A (human, UniProt Q9BXN2 1-247); experiment: flow cytometry on HEK Blue Dectin 1a cells (MFI)
T2 construct: also called hDectin-1a; Dectin-1 on HEK-Blue hDectin-1a cells
T2 sequence: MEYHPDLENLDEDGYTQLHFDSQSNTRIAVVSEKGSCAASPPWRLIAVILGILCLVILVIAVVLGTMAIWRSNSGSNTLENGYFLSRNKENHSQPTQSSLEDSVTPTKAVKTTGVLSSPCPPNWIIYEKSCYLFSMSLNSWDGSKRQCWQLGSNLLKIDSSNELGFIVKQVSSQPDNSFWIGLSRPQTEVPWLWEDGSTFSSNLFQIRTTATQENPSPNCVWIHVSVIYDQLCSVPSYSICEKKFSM

[1] = biological target: T3, human Dectin-1 (biosensor tests of Tables 3, 4A and 9; construct not stated) (human, UniProt Q9BXN2 66-247, limits assumed); experiment: Fab K dis, run 1
T3 construct: also called hDectin-1
T3 sequence (looked up): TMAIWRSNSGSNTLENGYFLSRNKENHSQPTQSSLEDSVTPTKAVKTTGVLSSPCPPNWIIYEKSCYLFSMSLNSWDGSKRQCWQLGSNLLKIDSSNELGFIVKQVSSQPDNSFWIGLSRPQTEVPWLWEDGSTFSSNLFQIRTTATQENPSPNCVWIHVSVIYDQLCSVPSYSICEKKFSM

[2] = biological target: T3, human Dectin-1 (biosensor tests of …); experiment: Fab K dis, run 3
[3] = biological target: T3, human Dectin-1 (biosensor tests of …); experiment: Fab K dis, run 2
[4] = biological target: T3, human Dectin-1 (biosensor tests of …); experiment: Fab K dis, average of 3
[5] = biological target: T3, human Dectin-1 (biosensor tests of …); experiment: Fab K dis, run 1; remark: listed apart in the source
[6] = biological target: T3, human Dectin-1 (biosensor tests of …); experiment: Fab K dis, run 2; remark: listed apart in the source
[7] = biological target: T3, human Dectin-1 (biosensor tests of …); experiment: Fab K dis, run 3; remark: listed apart in the source
[8] = biological target: T3, human Dectin-1 (biosensor tests of …); experiment: Fab K dis, average of 3; remark: listed apart in the source
[9] = biological target: T3, human Dectin-1 (biosensor tests of …); experiment: Octet
[10] = biological target: T3, human Dectin-1 (biosensor tests of …); experiment: Octet, single point off rate fit
[11] = biological target: T3, human Dectin-1 (biosensor tests of …); experiment: Octet response; as to X = 340: time not given here; as to X = 470: time not given here
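For delta in this document: Single-point dissociation rate (koff) fit for each variant binding domain, expressed as change versus the parental clone.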

EC50 (Trop-2): 5.21 nM
B2: parental anti-Trop2 monospecific antibody (antibody, V domains shown)
VH: QVQLQQSGSELKKPGASVKVSCKASGYTFTNYGMNWVKQAPGQGLKWMGWINTYTGEPTYTDDFKGRFAFSLDTSVSTAYLQISSLKADDTAVYFCARGGFGSSYWYFDVWGQGSLVTVSS
VL: DIQLTQSPSSLSASVGDRVSITCKASQDVSIAVAWYQQKPGKAPKLLIYSASYRYTGVPDRFSGSGSGTDFTLTISSLQPEDFAVYYCQQHYITPLTFGAGTKVEIK

koff [1]: 0.00631 s⁻¹ | koff [2]: 0.00213 s⁻¹ | koff [3]: 0.00208 s⁻¹ | koff [4]: 0.00351 s⁻¹
B4: 2M24A.30 hFab L1 (Fab, V domains shown)
VH: QVQLVQSGAEVKKPGASVKVSCKSSGYTFTDYYIHWVRQAPGQGLEWMGWINPNSGDTNYAQKFQGRITMTRDTSISTAYLELSRLRSDDTAVFYCARNSGSYSFGYWGQGTLVTVSS
VL: DIQMTQSPSSVSASVGDRVTITCRASQGISSWLAWYQQKPGKAPKLLIFGASSLQSGVPSRFSGSGSGTDFTLTISSLQPEDFATYYCQQAYSFPFTFGPGTKVDIE
notes: Fab; also called 2M24.L1

koff [1]: 0.00615 s⁻¹ | koff [2]: 0.00314 s⁻¹ | koff [3]: 0.00278 s⁻¹ | koff [4]: 0.00402 s⁻¹
B7: 2M24A.33 hFab L4 (Fab, V domains shown)
VH: QVQLVQSGAEVKKPGASVKVSCKSSGYTFTDYYIHWVRQAPGQGLEWMGWINPNSGDTNYAQKFQGRITMTRDTSISTAYLELSRLRSDDTAVFYCARNSGSYSFGYWGQGTLVTVSS
VL: DIQMTQSPSSVSASVGDRVTITCRASQGISSWLAWYQQKPGKAPKLLIYAASSLQSGVPSRFSGSGSGTDFTLTISSLQPEDFATYYCQQAYSFPFTFGPGTKVDIE
notes: Fab; also called 2M24.L4

koff [1]: 0.00635 s⁻¹ | koff [2]: 0.00239 s⁻¹ | koff [3]: 0.00236 s⁻¹ | koff [4]: 0.0037 s⁻¹
B8: 2M24A.31 hFab L2 (Fab, V domains shown)
VH: QVQLVQSGAEVKKPGASVKVSCKSSGYTFTDYYIHWVRQAPGQGLEWMGWINPNSGDTNYAQKFQGRITMTRDTSISTAYLELSRLRSDDTAVFYCARNSGSYSFGYWGQGTLVTVSS
VL: DIQMTQSPSSVSASVGDRVTITCRASQGISSWLAWYQQKPGKAPKLLIYGASSLQSGVPSRFSGSGSGTDFTLTISSLQPEDFATYYCQQAYSFPFTFGPGTKVDIE
notes: Fab; also called 2M24.L2

delta [9]: 100% | koff [10]: 0.313 s⁻¹ | X = 340 [11]: 0.106 | X = 470 [11]: 0
B9: 2M24A.1.14 hFab (Fab, V domains shown)
VH: QVQLVQSGAEVKKPGASVKVSCKSSGYTFTDYYIHWVRQAPGQGLEWMGWINPNSGDTNYAQKFQGRITMTRDTSISTAYLELSRLRSDDTAVFYCARNSGSASFGYWGQGTLVTVSS
VL: DIQMTQSPSSVSASVGDRVTITCRASQGISSWLAWYQQKPGKAPKLLIFGASSLQSGVPSRFSGSGSGTDFTLTVSSLQPEDFATYYCQQAYSFPFTFGPGTKVDIE
notes: Fab; also called 2M24.1.14

delta [9]: 62% | koff [10]: 0.0239 s⁻¹ | X = 290 [11]: 0.082 | X = 350 [11]: 0.0314
B10: 2M24A.1.15 (Fab, V domains shown)
VH: QVQLVQSGAEVKKPGASVKVSCKSSGYTFTDYYIHWVRQAPGQGLEWMGWINPNSGDTNYAQKFQGRITMTRDTSISTAYLELSRLRSDDTAVFYCAANSGSYSFGYWGQGTLVTVSS
VL: DIQMTQSPSSVSASVGDRVTITCRASQGISSWLAWYQQKPGKAPKLLIFGASSLQSGVPSRFSGSGSGTDFTLTVSSLQPEDFATYYCQQAYSFPFTFGPGTKVDIE
notes: Fab; also called 2M24.1.15

The remaining lines, values behind:

B1: 2M24.116/Trop2 bispecific antibody (bispecific antibody, V domains shown)
VH 1: QVQLVQSGAEVKKPGASVKVSCKASGYTFTDYYMHWVRQAPGQGLEWMGWINPNEGDTNYAQKFQERITMTRDTSISTAYMELSRLRSDDTAVYYCARNTGAYSFGYWGQGTLVTVSS
VL 1: DIQMTQSPSSVSASVGDRVTITCRASQGISSWLAWYQQKPGKAPKLLIYGASDLQSGVPSRFSGSGSGTDFTLTISSLQPEDFATYYCHQAYSFPFTFGPGTKVDIK
VH 2: QVQLQQSGSELKKPGASVKVSCKASGYTFTNYGMNWVKQAPGQGLKWMGWINTYTGEPTYTDDFKGRFAFSLDTSVSTAYLQISSLKADDTAVYFCARGGFGSSYWYFDVWGQGSLVTVSS
VL 2: DIQLTQSPSSLSASVGDRVSITCKASQDVSIAVAWYQQKPGKAPKLLIYSASYRYTGVPDRFSGSGSGTDFTLTISSLQPEDFAVYYCQQHYITPLTFGAGTKVEIK
notes: hIgG1
EC50 (Trop-2): 8.35 nM | EC50 (human Dectin-1 isoform A): 1.76 nM

B3: 2M24A.32 hFab L3 (Fab, V domains shown)
VH: QVQLVQSGAEVKKPGASVKVSCKSSGYTFTDYYIHWVRQAPGQGLEWMGWINPNSGDTNYAQKFQGRITMTRDTSISTAYLELSRLRSDDTAVFYCARNSGSYSFGYWGQGTLVTVSS
VL: DIQMTQSPSSVSASVGDRVTITCRASQGISSWLAWYQQKPGKAPKLLIFAASSLQSGVPSRFSGSGSGTDFTLTISSLQPEDFATYYCQQAYSFPFTFGPGTKVDIE
notes: Fab; also called 2M24.L3
koff [1]: 0.00671 s⁻¹ | koff [2]: 0.00233 s⁻¹ | koff [3]: 0.00223 s⁻¹ | koff [4]: 0.00376 s⁻¹

B5: 2M24.119/Trop2 bispecific antibody (bispecific antibody, V domains shown)
VH 1: QVQLVQSGAEVKKPGASVKVSCKASGYTFTDYYMHWVRQAPGQGLEWMGWINPNEGDTNYAQKFEGRITMTRDTSISTAYMELSRLRSDDTAVYYCARNTGAYSFGYWGQGTLVTVSS
VL 1: DIQMTQSPSSVSASVGDRVTITCRASQGISSWLAWYQQKPGKAPKLLIYGASDLQSGVPSRFSGSGSGTDFTLTISSLQPEDFATYYCQQAYGFPFTFGPGTKVDIK
VH 2: QVQLQQSGSELKKPGASVKVSCKASGYTFTNYGMNWVKQAPGQGLKWMGWINTYTGEPTYTDDFKGRFAFSLDTSVSTAYLQISSLKADDTAVYFCARGGFGSSYWYFDVWGQGSLVTVSS
VL 2: DIQLTQSPSSLSASVGDRVSITCKASQDVSIAVAWYQQKPGKAPKLLIYSASYRYTGVPDRFSGSGSGTDFTLTISSLQPEDFAVYYCQQHYITPLTFGAGTKVEIK
notes: hIgG1
EC50 (Trop-2): 7.87 nM | EC50 (human Dectin-1 isoform A): 1.3 nM

B6: 2M24A.28 hFab H6 (Fab, V domains shown)
VH: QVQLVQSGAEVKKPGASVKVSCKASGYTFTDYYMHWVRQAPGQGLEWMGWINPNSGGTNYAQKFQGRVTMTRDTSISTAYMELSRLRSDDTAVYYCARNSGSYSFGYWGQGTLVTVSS
VL: DIQMTQSPSSVSASVGDRVTITCRASQGISSWLAWYQQKPGKAPKLLIFGASSLQSGVPSRFSGSGSGTDFTLTVSSLQPEDFATYYCQQAYSFPFTFGPGTKVDIE
notes: Fab; also called 2M24.H6
koff [5]: 0.00412 s⁻¹ | koff [6]: 0.000995 s⁻¹ | koff [7]: 0.00151 s⁻¹ | koff [8]: 0.00221 s⁻¹

B11: 2M24A.27 hFab H5 (Fab, V domains shown)
VH: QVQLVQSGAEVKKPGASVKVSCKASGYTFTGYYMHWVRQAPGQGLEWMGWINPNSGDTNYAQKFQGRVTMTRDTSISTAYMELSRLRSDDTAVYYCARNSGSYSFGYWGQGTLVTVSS
VL: DIQMTQSPSSVSASVGDRVTITCRASQGISSWLAWYQQKPGKAPKLLIFGASSLQSGVPSRFSGSGSGTDFTLTVSSLQPEDFATYYCQQAYSFPFTFGPGTKVDIE
notes: Fab; also called 2M24.H5
koff [5]: 0.00624 s⁻¹ | koff [6]: 0.00195 s⁻¹ | koff [7]: 0.0032 s⁻¹ | koff [8]: 0.0038 s⁻¹
